Assay results: IntAct's records for PubMed 22668317

B1: LPS-assembly protein LptD (Escherichia coli (strain K12)), P31554 (parent)
chain: MKKRIPTLLATMIATALYSQQGLAADLASQCMLGVPSYDRPLVQGDTNDLPVTINADHAKGDYPDDAVFTGSVDIMQGNSRLQADEVQLHQKEAPGQPEPVRTVDALGNVHYDDNQVILKGPKGWANLNTKDTNVWEGDYQMVGRQGRGKADLMKQRGENRYTILDNGSFTSCLPGSDTWSVVGSEIIHDREEQVAEIWNARFKVGPVPIFYSPYLQLPVGDKRRSGFLIPNAKYTTTNYFEFYLPYYWNIAPNMDATITPHYMHRRGNIMWENEFRYLSQAGAGLMELDYLPSDKVYEDEHPNDDSSRRWLFYWNHSGVMDQVWRFNVDYTKVSDPSYFNDFDNKYGSSTDGYATQKFSVGYAVQNFNATVSTKQFQVFSEQNTSSYSAEPQLDVNYYQNDVGPFDTRIYGQAVHFVNTRDDMPEATRVHLEPTINLPLSNNWGSINTEAKLLATHYQQTNLDWYNSRNTTKLDESVNRVMPQFKVDGKMVFERDMEMLAPGYTQTLEPRAQYLYVPYRDQSDIYNYDSSLLQSDYSGLFRDRTYGGLDRIASANQVTTGVTSRIYDDAAVERFNISVGQIYYFTESRTGDDNITWENDDKTGSLVWAGDTYWRISERWGLRGGIQYDTRLDNVATSNSSIEYRRDEDRLVQLNYRYASPEYIQATLPKYYSTAEQYKNGISQVGAVASWPIADRWSIVGAYYYDTNANKQADSMLGVQYSSCCYAIRVGYERKLNGWDNDKQHAVYDNAIGFNIELRGLSSNYGLGTQEMLRSNILPYQNTL
partner: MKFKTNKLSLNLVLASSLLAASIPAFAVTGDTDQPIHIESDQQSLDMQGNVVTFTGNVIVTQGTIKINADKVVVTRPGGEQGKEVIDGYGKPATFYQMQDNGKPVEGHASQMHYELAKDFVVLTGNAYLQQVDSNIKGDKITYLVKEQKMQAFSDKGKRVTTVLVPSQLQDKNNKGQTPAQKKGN

Variants of: B1
Conditions: with lpta_ecoli lptA

effect of a mutation on the interaction	Variant
disrupting interaction	C31S;C725S
disrupting interaction	C724S;C725S
disrupting interaction	C31S;C173S
